Reference: the supplement of paper PMC9732359
± gives the uncertainty stated by the source.

Experiment: protein stability index of a GFP-peptide fusion (yeast GPS) (PSI 1-4); higher = more stable; sorted into four equal gates, so the index is relative within each strain
In short: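 Tiled 17-residue yeast protein peptides were fused downstream of GFP in a plasmid that also expresses Cherry, and the pooled library was carried in yeast. Mid-log cultures in leucine-free medium were sorted into four equal gates by GFP/Cherry fluorescence ratio, and plasmids from each gate were PCR-amplified and Illumina-sequenced, with reads assigned to strains by barcodes. The protein stability index for each peptide was each gate's read frequency times its gate number, summed.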

Row | Sequence | protein stability index (doa10∆) | protein stability index (pdr5∆) | protein stability index (san1∆) | protein stability index (ubr1∆)
1 | IRKYGLNICRQCFREKA [RPS29A] | 1.59 ± 0.067 | 1.67 ± 0.045 | 1.32 ± 0.11 | 1.73 ± 0.065
2 | ITATLVGTVRCEEEKKT [CSL4] | 1.54 ± 0.14 | 1.9 ± 0.25 | 1.67 ± 0.16 | 1.58 ± 0.079
3 | GKGESVIFNDNVTETYS [SIR3] | 3.08 ± 0.21 | 2.92 ± 0.14 | 2.88 ± 0.074 | 2.87 ± 0.2
4 | ETAAMASLALAHVFVGT [RPN1] | 1.39 ± 0.044 | 1.58 ± 0.047 | 1.61 ± 0.098 | 1.41 ± 0.052
5 | LESGKETALEFLEKEKQ [SMC4] | 3.62 ± 0.12 | 3.46 ± 0.11 | 3.17 ± 0.071 | 3.48 ± 0.079
6 | SPYERRLIDLIRNSGEK [RPL36A] | 1.86 ± 0.093 | 1.89 ± 0.098 | 1.68 ± 0.16 | 1.89 ± 0.086
7 | KASKEIKKVICGAWEPA [SIR3] | 2.15 ± 0.25 |  |  | 2.67 ± 0.11
8 | LFAREIAKSQDKKSCSV [DPB4] | 3.33 ± 0.064 | 3.24 ± 0.073 | 3.14 ± 0.067 | 3.22 ± 0.04
9 | NKVQIMIATNVAARGLD [PRP28] | 1.45 ± 0.061 | 1.5 ± 0.078 | 1.43 ± 0.15 | 1.19 ± 0.055
10 | FILLDRLRQFNLQPIST [SMC4] | 2.22 ± 0.04 | 1.56 ± 0.037 | 1.49 ± 0.061 | 1.32 ± 0.042
11 | FHGTSTKANDKNESATI [FAS2] | 3.06 ± 0.12 | 2.8 ± 0.094 | 2.95 ± 0.075 | 2.91 ± 0.1
12 | EKNDQNNDDDDNSVEQG [MCD1] |  | 3.15 ± 0.22 |  | 
13 | SLLSLVGHLSILPQQSK [ECM29] | 2.21 ± 0.048 | 2 ± 0.052 | 1.94 ± 0.058 | 1.64 ± 0.027
14 | PDTSNEICDLAYQYVRA [SRB2] | 2.83 ± 0.046 | 2.93 ± 0.04 | 2.95 ± 0.046 | 3 ± 0.041
15 | QIVPYIEKLTDGHLRAP [BRR2] | 3.04 ± 0.052 | 3.1 ± 0.043 | 3.12 ± 0.037 | 3.15 ± 0.051
16 | TDGELDIEFINSLLTIV [RPC34] | 2.78 ± 0.095 | 2.68 ± 0.14 | 2.4 ± 0.092 | 2.81 ± 0.091
17 | SRLLDILEDYCYFRDFE [ISW2] | 1.71 ± 0.088 | 1.42 ± 0.089 | 1.5 ± 0.12 | 1.21 ± 0.058
18 | IRSSRSRGIVIGSGAMS [RPP1] | 2.63 ± 0.085 | 2.77 ± 0.09 | 2.63 ± 0.091 | 2.46 ± 0.073
19 | PPPPGFEEDSDLALPPP [PRP8] | 3.22 ± 0.078 | 3.36 ± 0.07 | 3.19 ± 0.079 | 3.35 ± 0.057
20 | VDNDNWVYKTKGDGMTS [RPN1] | 3.12 ± 0.1 | 3.27 ± 0.065 | 3 ± 0.071 | 3.1 ± 0.11
21 | MKWSAIPFQTLYRSIES [YJL039C/NUP192] | 1.53 ± 0.046 | 1.91 ± 0.058 | 1.7 ± 0.11 | 1.91 ± 0.031
22 | MKPSDNISTNTNIHEPQ [SSN2] | 3.19 ± 0.042 | 3.08 ± 0.051 | 3.1 ± 0.042 | 3.06 ± 0.052
23 | KSSWRQEWLANLKLISV [SIR4] | 1.71 ± 0.057 | 1.45 ± 0.042 | 1.64 ± 0.16 | 1.46 ± 0.045
24 | ILQNEHDYWNKIMQSIS [SRB4] | 2.14 ± 0.079 | 2.37 ± 0.062 | 1.92 ± 0.11 | 2.35 ± 0.082
25 | GTLEYGTCFGGSKLEDM [RET1] | 3.17 ± 0.072 | 3.16 ± 0.072 | 3.36 ± 0.061 | 3.29 ± 0.065
26 | DAKTSYPNEVLKFNHGN [REC8] | 2.78 ± 0.052 | 2.95 ± 0.072 | 3.02 ± 0.058 | 2.95 ± 0.065
27 | INSTKNGKDNNNESNKN [MED2] | 3.08 ± 0.052 | 3.15 ± 0.045 | 3.22 ± 0.038 | 3.19 ± 0.033
28 | RRADVKTATVKINKKLN [RPL38] | 1.83 ± 0.058 | 1.84 ± 0.041 | 2.17 ± 0.086 | 1.62 ± 0.039

Row | Sequence | protein stability index (doa10∆) | protein stability index (pdr5∆) | protein stability index (san1∆) | protein stability index (ubr1∆)
29 | GYDDFQEEGSFEFGNMK [FAS2] | 3.48 ± 0.14 | 3.26 ± 0.18 | 2.6 ± 0.28 | 3.33 ± 0.08
30 | REPRVVSALQMLKQHLF [PUP1] | 3.1 ± 0.13 | 3.05 ± 0.094 | 3.02 ± 0.066 | 2.79 ± 0.049
31 | PSTSITLAERQQLAYDL [RPN9] | 2.91 ± 0.045 | 3.09 ± 0.06 | 2.8 ± 0.06 | 2.94 ± 0.033
32 | IQQLISQFLKRVHANLQ [SNF11] | 1.63 ± 0.051 | 1.61 ± 0.044 | 1.52 ± 0.068 | 1.54 ± 0.038
33 | SNGLLSIVLLLLSQFGI [YML103C/NUP188] | 1.51 ± 0.12 | 1.53 ± 0.083 | 1.41 ± 0.18 | 2.19 ± 0.079
34 | IEETSAAIKDLDDFGEE [RRP43] | 2.85 ± 0.19 |  |  | 
35 | LLNEYRPHQSRESLIML [MED7] | 2.31 ± 0.074 | 2.15 ± 0.12 | 2.01 ± 0.12 | 1.98 ± 0.059
36 | INCNKETIENVKLQMIK [ECM29] | 3.21 ± 0.097 | 3.03 ± 0.16 | 2.93 ± 0.089 | 3.4 ± 0.13
37 | DIGKEMSLRHFGHLMHY [RPN1] | 1.26 ± 0.049 | 1.25 ± 0.041 | 1.23 ± 0.074 | 1.08 ± 0.037
38 | INGWELTKAQKYLDQVL [RPL17B] | 2.74 ± 0.2 | 2.9 ± 0.17 | 2.86 ± 0.1 | 2.74 ± 0.063
39 | HRTIVIRRAYLHYIPKY [RPS11A] | 1.87 ± 0.048 | 1.55 ± 0.042 | 1.84 ± 0.07 | 1.74 ± 0.031
40 | IGIVEIAHENEQKWLIY [SRB8] | 1.69 ± 0.067 | 1.83 ± 0.051 | 1.58 ± 0.086 | 1.54 ± 0.034
41 | QLAQIRQFLKANKTNLI [YML103C/NUP188] | 2.65 ± 0.057 | 2.81 ± 0.068 | 2.86 ± 0.049 | 2.93 ± 0.04
42 | TQATSEDGTSASFQIVE [RPC19] | 2.88 ± 0.073 | 3.18 ± 0.079 | 3.05 ± 0.051 | 3.12 ± 0.068
43 | ARRRQPTDQNNQSNLNG [SNF2] | 2.88 ± 0.12 | 3.25 ± 0.19 | 3.11 ± 0.07 | 3.24 ± 0.16
44 | TVPNLPTTMVTNQKDTN [ISW2] | 1.29 ± 0.046 | 1.84 ± 0.053 | 1.51 ± 0.1 | 1.75 ± 0.051
45 | PLQGIFHNAVFNSFRRF [QCR8] | 2.67 ± 0.064 | 2.47 ± 0.048 | 2.38 ± 0.054 | 1.96 ± 0.031
46 | LKDFNTERVVEIGPSPT [FAS2] | 2.888 ± 0.024 | 2.901 ± 0.022 | 2.861 ± 0.017 | 2.716 ± 0.014
47 | LEALMDILLCYQKLFSQ [SRB8] | 2.98 ± 0.055 | 3.16 ± 0.052 | 3.18 ± 0.048 | 3.05 ± 0.081
48 | YLERTLDTFIKIDGNPD [PRE5] | 2.73 ± 0.098 | 3.2 ± 0.092 | 3.04 ± 0.055 | 3.3 ± 0.078
49 | ELNQDRLGGDDLRIRIK [SNF5] | 3.31 ± 0.11 | 3.36 ± 0.19 | 3.21 ± 0.12 | 2.91 ± 0.15
50 | KSDTVTSASQPFKFGKT [YOR098C/NUP1] | 2.34 ± 0.081 | 1.71 ± 0.069 | 1.62 ± 0.12 | 1.97 ± 0.052
51 | ADTLDPALLRPGRLDRK [RPT3] | 3.57 ± 0.17 | 3.56 ± 0.16 | 3.26 ± 0.23 | 3.3 ± 0.2
52 | LNSNIRAGVTIPSIPNP [SNF5] | 2.57 ± 0.075 | 2.72 ± 0.062 | 2.5 ± 0.062 | 2.72 ± 0.049
53 | IKKEEGKIDEAADILCE [RPN5] | 3.1 ± 0.096 | 2.69 ± 0.12 | 2.95 ± 0.11 | 2.52 ± 0.069
54 | SEAEYSKDIETLKKEWL [YIL149C/MLP2] | 3.26 ± 0.083 | 3.04 ± 0.085 | 3.13 ± 0.051 | 3 ± 0.049
55 | GALIHKAGLMTGGISGD [SMC1] | 2.63 ± 0.16 | 2.73 ± 0.11 | 2.72 ± 0.06 | 2.75 ± 0.087
